Test results from the nanobody polyreactivity screen of Harvey et al. (2022).

Assay: yeast display, Sf9 membrane polyspecificity reagent, FACS + sequencing; frameworks hold sequencing errors
Summary of the method: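 After 36–48 hours of galactose induction, yeast (Saccharomyces cerevisiae BJ5465) displaying a synthetic nanobody library were stained at 4 °C for 1 hour with 10% biotinylated, detergent-solubilized Sf9 membrane reagent. Streptavidin microbeads enriched the stained cells before FACS sorting into low and high (top ~1%) gates on anti-HA and streptavidin fluorescence. Each clone's polyreactivity label reflects its gate of origin.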

QVQLEESGGRLVQAGCSLRLSCAASGRTFDYYAMGWYRQAPGKEWELVAAITASGGSTFYADSVKGRFTISRDNAKNTVYLQMYSMKPEDTAVYYCAGRYTWRYFIKYGYWGQGTQVTVSS
polyreactivity (PSR sort gate): high polyreactivity

QVQLEESGGRLVQAGCSLRLSCAASGYIFRKYAMGWYRQAPGKEWELVADISSSGGSTYYADSVKGRFTISRDNAKNTVYLQMNSLKPEDTAGYYCAKDRKSSRRINRMDYWGQGTQVTVSS
polyreactivity (PSR sort gate): high polyreactivity

QVQLEESGGRLVQAGGRLRLNCAASGLTFNTNSMGWYRKAPGKERELVAAISRGGGSTYYADSVKGRFTISRDNAKNSVYLQMNSLKPEDTAVYYCNAEKSASYLLYDYWGQGTLVTVSS
polyreactivity (PSR sort gate): high polyreactivity

QVQLEESGGRLVQAGGSLRLICAASGSTFLANAMGWYRQAPGKERELVATISSGGSTNYADSVKGRFTISRDNAKNTVYLQMNSLKPEDTAVYYCAAEYWYAWQEYGYWGQGTQVTVSS
polyreactivity (PSR sort gate): low polyreactivity

QVQLEESGGRLVQAGGSLRLSCAASGRTFYPYAMGWYRQAPGKERELVAAISYRGGSTYYADSVKGRFTISRDNAKNTVYLQMNSLKPEDTAVYYCAKRGYASGSKWDYGYWGQGTQVTVSS
polyreactivity (PSR sort gate): high polyreactivity

QVQLEESGGSLVQAGGSLRLSCAASGRTFYHYAMGWYRPAPGKERQLVAAISSGGSTKYADSVKGRFTISRDNAKNTVYLQMNSLKPEDTAVYYCAARTYQKGGRYYYWGQGTHVTVSS
polyreactivity (PSR sort gate): high polyreactivity

QVQLEESGLALVQAGGSLRLSCADSGRIFRKKAMGWYRQAPGKERELVAAISSSGSTYYADSVKGRFKISRDNAKNTVYLQMNSLKPVDTAVYYCAARYQYGNRRGRDYWGQGTQVTVSS
polyreactivity (PSR sort gate): high polyreactivity

QVQLEESGRGLVQAGGSLRLSCAASGSTLSTYSMGWYRQAPGKERELVAAITWSDDSTYYADSVKGRFTISRDNAKNTFYLQMNSLKPEDTAVYYCAAEYISWYFGYDYWGQGTQVTVSS
polyreactivity (PSR sort gate): high polyreactivity

QVQLEESGVGLVQAGGSLRLSCAASGSIIHYNAMGWYRKAPGKERELVASISSGGRTYYADSVKGRFTISRDNAKNTVYLQMNSLNQEDTAVYYCAAEYYQTTYVWWTYDYSWGLGTQVTVSS
polyreactivity (PSR sort gate): low polyreactivity

QVQLEESRGGLVQAGGSLRLSCAASGSILTGYAMGLSRQAPGKERELVAAINFSGDNTYYADSVKGRFTISRDNAKNSVYLQMNSLKPEDTAVYYCNARNAVEDDYWGQGTQVTVSS
polyreactivity (PSR sort gate): low polyreactivity

QVQLEESVGGLDQAGGSLRLSCAASGHIIVYYPLGWYRQAPGKERELVAAITSGGSTNYADSGKGRFTISRDNAKNTVYLQMNSLKPADSAVYYCAARQWFSHRRWGGSRYDYWGQGTQVTVSS
polyreactivity (PSR sort gate): low polyreactivity

QVQLEESVGGLVQAGCSLRLSCAASGGIFWVYAMGWYRQAPGKERELVAAISNSDTSTSYADSVKGRFTISRDNAKNTVYLQMNSLKPEDTAVYYCNADSPSLSGDYWGQGTQVTVSS
polyreactivity (PSR sort gate): low polyreactivity

QVQLEESVGGLVQAGGSLRLSCAASGLTFRAYAMGWYRQAPGKERELVAAISSGGSTSYADSVKGRFTISRDNANITVYLQMNRLKPEDSAVYYCAADRARRGIRDYYWGQGTQVTVSS
polyreactivity (PSR sort gate): high polyreactivity

QVQLEESVGGLVQAGGSLRLTCAASGSTLSYYSMGWYRQAPGKERELVARITRSGGRTYYADSVKGRFTISRDNEKNTVYLQINSLKPEDTGVYYCNKVAYYSRRMDYWGQGTLVTVSS
polyreactivity (PSR sort gate): high polyreactivity

QVQLEESVGGLVQAGRSLRLSCASSGTTFYYYALGWYRQAPGKERELVATIDSGTSTYYADSVKGRFTISRDNAKNTVYLQMNSLKPEDTAVYYCAAKTWSWSYGYNYWGQGTQVTVSS
polyreactivity (PSR sort gate): low polyreactivity

QVQLEESWGGLVQAGGSLRLICAASGSIFSYYAMGWYRQAPGKERELVAVITSGGSTYYADSVKGRFTISRDNAKNTVYLQMNSLKPEDTAVYYCAVKYPELRTWGYYYWGQGTQVTVSS
polyreactivity (PSR sort gate): high polyreactivity

QVQLEESWGGLVQAGGSLRLSCAASGSIYWEYAMGWYTPAPGKEREFVATISARGGRTYYADSVKGRFTISRDNAKNTVYLQMNSLKPEDTAVYYCANVGVFHLRDNYRFDFWGQGTQVTVSS
polyreactivity (PSR sort gate): low polyreactivity
